# Changes are numbered by the printed parent chain. In names and notes the source's numbering stands. Several values for one entry are separate records, joined by “and”; a condition that tells them apart may be missing. Equal values may be shown once.
# T1: C1r-CCP2-SP, recombinant autoactivated domain truncation of human C1r (human, UniProt P00736 375-703)
# T1 sequence: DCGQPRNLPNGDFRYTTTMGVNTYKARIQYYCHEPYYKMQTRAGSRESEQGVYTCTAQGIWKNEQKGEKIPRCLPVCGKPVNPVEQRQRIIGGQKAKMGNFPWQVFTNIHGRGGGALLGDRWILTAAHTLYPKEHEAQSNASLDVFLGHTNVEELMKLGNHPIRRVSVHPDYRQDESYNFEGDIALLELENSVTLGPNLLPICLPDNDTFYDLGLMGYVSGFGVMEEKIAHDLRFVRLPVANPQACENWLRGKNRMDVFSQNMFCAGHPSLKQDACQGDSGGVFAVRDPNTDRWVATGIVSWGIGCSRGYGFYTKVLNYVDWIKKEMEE
# B1: BBK32-C (C-terminal domain of B. burgdorferi BBK32), wild type (domain or fragment)
# chain: SNRYQSYLEGVKYNVDSAIQTITKIYNTYTLFSTKLTQMYSTRLDNFAKAKAKEEAAKFTKEDLEKNFKTLLNYIQVSVKTAANFVYINDTHAKRKLENIEAEIKTLIAKIKEQSNLYEAYKAIVTSILLMRDSLKEVQGIID
# B2: BBK32-C R337A (residues 206–354) (domain or fragment, B. burgdorferi B31, UniProt O50835 206-354, looked up)
# chain: SNRYQSYLEGVKYNVDSAIQTITKIYNTYTLFSTKLTQMYSTRLDNFAKAKAKEEAAKFTKEDLEKNFKTLLNYIQVSVKTAANFVYINDTHAKRKLENIEAEIKTLIAKIKEQSNLYEAYKAIVTSILLMADSLKEVQGIIDKNGVWY
# B3: BBK32-C T242A (domain or fragment, B. burgdorferi B31, UniProt O50835 206-348, looked up)
# chain: B1 chain with T37A
# B4: BBK32-C T242A-Y245A (domain or fragment, B. burgdorferi B31, UniProt O50835 206-348, looked up)
# chain: B1 chain with T37A, Y40A
# B5: BBK32-C L236A-T239A (domain or fragment, B. burgdorferi B31, UniProt O50835 206-348, looked up)
# chain: B1 chain with L31A, T34A
# B6: BBK32-C N251A (domain or fragment, B. burgdorferi B31, UniProt O50835 206-348, looked up)
# chain: B1 chain with N46A
# B7: BBK32-C L236A (domain or fragment, B. burgdorferi B31, UniProt O50835 206-348, looked up)
# chain: B1 chain with L31A
# B8: BBK32-C Y323A-E324A (domain or fragment, B. burgdorferi B31, UniProt O50835 206-348, looked up)
# chain: B1 chain with Y118A, E119A
# B9: BBK32-C T331A (domain or fragment, B. burgdorferi B31, UniProt O50835 206-348, looked up)
# chain: B1 chain with T126A
# B10: BBK32-C R248A (domain or fragment, B. burgdorferi B31, UniProt O50835 206-348, looked up)
# chain: B1 chain with R43A
# B11: BBK32-C E324A (domain or fragment, B. burgdorferi B31, UniProt O50835 206-348, looked up)
# chain: B1 chain with E119A
# B12: BBK32-C Y323A (domain or fragment, B. burgdorferi B31, UniProt O50835 206-348, looked up)
# chain: B1 chain with Y118A
# B13: BBK32-C K327A-T331A (domain or fragment, B. burgdorferi B31, UniProt O50835 206-348, looked up)
# chain: B1 chain with K122A, T126A
# B14: BBK32-C Y245A (domain or fragment, B. burgdorferi B31, UniProt O50835 206-348, looked up)
# chain: B1 chain with Y40A
# B15: BBK32-C T239A (domain or fragment, B. burgdorferi B31, UniProt O50835 206-348, looked up)
# chain: B1 chain with T34A
# B16: BBK32-C K327A (domain or fragment, B. burgdorferi B31, UniProt O50835 206-348, looked up)
# chain: B1 chain with K122A
# Target: T1, C1r-CCP2-SP, recombinant autoactivated …
# Assay: SEC-MALS + other: SEC-SAXS
row,Binder,stoichiometry N
1,B1,1

# Target: T1, C1r-CCP2-SP, recombinant autoactivated …
# Assay: SPR
Binder,Kd,koff,kon
B2,0.78 ± 0.13 nM,8.8e-05 s⁻¹,110000 M⁻¹ s⁻¹
B1,0.45 nM and 0.78 nM,4.5e-05 s⁻¹ and 6.3e-05 s⁻¹,100000 M⁻¹ s⁻¹ and 81000 M⁻¹ s⁻¹
B3,0.96 nM,9.9e-05 s⁻¹,100000 M⁻¹ s⁻¹
B4,57 ± 0.1 nM,0.012 s⁻¹,210000 M⁻¹ s⁻¹
B5,0.18 nM,4.3e-05 s⁻¹,240000 M⁻¹ s⁻¹
B6,0.61 ± 0.21 nM,0.00011 s⁻¹,180000 M⁻¹ s⁻¹
B7,0.15 nM,3.5e-05 s⁻¹,230000 M⁻¹ s⁻¹
B8,480 ± 51 nM,0.046 s⁻¹,100000 M⁻¹ s⁻¹
B9,0.73 ± 0.3 nM,8.2e-05 s⁻¹,140000 M⁻¹ s⁻¹
B10,5.8 ± 0.1 nM,0.0013 s⁻¹,220000 M⁻¹ s⁻¹
B11,1.6 ± 0.07 nM,0.00034 s⁻¹,200000 M⁻¹ s⁻¹
B12,0.87 ± 0.06 nM,0.00016 s⁻¹,180000 M⁻¹ s⁻¹
B13,510 ± 200 nM,0.026 s⁻¹,37000 M⁻¹ s⁻¹
B14,1.3 ± 0.01 nM,0.00035 s⁻¹,280000 M⁻¹ s⁻¹
B15,0.17 nM,4.4e-05 s⁻¹,260000 M⁻¹ s⁻¹
B16,120 ± 50 nM,0.0075 s⁻¹,97000 M⁻¹ s⁻¹

# — publication PMC8612984 (Journal of immunology (Baltimore, Md. : 1950), 2021)
